Experiment [1] deals with HLA-A*02:01. The experiment in a line: IEDB peptide-MHC binding, purified MHC/competitive/radioactivity; ≥ and ≤ were set here for values at or beyond the usual limits of such assays.
A further experiment deals with HLA-C*08:02. The experiment can be described thus: IEDB peptide-MHC binding, purified MHC/direct/fluorescence; filed as Kd, often an IC50 or EC50 that approximates it; ≥ and ≤ were set here for values at or beyond the usual limits of such assays.
The next experiment concerns the target HLA-C*03:03. The experiment is described as above. Particulars: source organism: Listeria monocytogenes EGD-e.
Another experiment addresses HLA-A*69:01. The description is as above.
The target of the next experiment is HLA-B*35:01. The experiment can be described thus: IEDB peptide-MHC binding, purified MHC/competitive/fluorescence; filed as Kd, often an IC50 or EC50 that approximates it; ≥ and ≤ were set here for values at or beyond the usual limits of such assays. Particulars: source organism: Yersinia pestis Antiqua.
Experiment [2] has as its target HLA-A*03:01. The description is as above. Particulars: source organism: Yersinia pestis Antiqua.
The target of experiment [3] is HLA-A*01:01. The experiment is described as above. Particulars: source organism: Yersinia pestis Antiqua.
A further experiment has as its target HLA-B*15:17. The description is as above. Particulars: source organism: Vibrio vulnificus YJ016.
Experiment [4] deals with HLA-A*11:01. The experiment is described as above. Particulars: source organism: Vibrio vulnificus YJ016.
The target in a further experiment is HLA-B*18:01. The experiment can be described thus: IEDB peptide-MHC binding, purified MHC/direct/fluorescence; filed as Kd, often an IC50 or EC50 that approximates it; ≥ and ≤ were set here for values at or beyond the usual limits of such assays. Particulars: source organism: Vibrio vulnificus.
For another experiment, the target named is HLA-A*31:01. The description is as above.
The next experiment deals with HLA-A*23:01. The experiment is described as above. Particulars: source organism: Vibrio vulnificus.
In a further experiment the target is HLA-A*26:02. The experiment is described as above. Particulars: source organism: Vibrio vulnificus CMCP6.
Another experiment deals with HLA-B*39:01. The experiment is described as above. Particulars: source organism: Vibrio vulnificus CMCP6.
For experiment [5], the target named is HLA-A*02:01. The description is as above.
The target in a further experiment is HLA-A*26:01. Described as above.
Another experiment addresses HLA-B*58:01. The description is as above.
Another experiment has as its target HLA-B*57:01. The description is as above.
Experiment [6] has as its target HLA-A*03:01. Described as above.
In experiment [7] the target is HLA-A*01:01. The description is as above.
Another experiment has as its target HLA-A*24:03. The experiment is described as above.
In the next experiment the target is HLA-B*07:02. Described as above.
A further experiment concerns the target HLA-A*24:02. The experiment is described as above.
The target of the next experiment is HLA-A*68:02. The experiment is described as above. Particulars: source organism: Vibrio vulnificus.
The next experiment concerns the target HLA-B*15:01. The description is as above.
The target in the next experiment is HLA-B*27:05. The experiment is described as above.
The next experiment concerns the target HLA-C*05:01. The description is as above.
In another experiment the target is HLA-C*12:03. Described as above. Particulars: source organism: Toxoplasma gondii ME49.
In another experiment the target is HLA-B*73:01. Described as above. Particulars: source organism: Salmonella enterica subsp. enterica serovar Typhimurium str. LT2.
The next experiment has as its target HLA-B*08:01. The experiment is described as above.
The target in another experiment is HLA-B*40:01. Described as above.
The target of another experiment is HLA-A*30:01. The experiment is described as above. Particulars: source organism: Salmonella enterica subsp. enterica serovar Typhimurium.
In another experiment the target is HLA-B*44:02. The experiment is described as above.
In experiment [8] the target is HLA-A*11:01. The description is as above. Particulars: source organism: Salmonella enterica subsp. enterica serovar Typhimurium.
In a further experiment the target is HLA-B*08:02. Described as above. Particulars: source organism: Salmonella enterica subsp. enterica serovar Typhimurium str. LT2.
Where [9] appears, read: source organism: Vibrio vulnificus.
Where [10] appears, read: source organism: Toxoplasma gondii.
Where [11] appears, read: source organism: Salmonella enterica.
Where [12] appears, read: source organism: Salmonella enterica subsp. enterica serovar Typhimurium.
The mark [13] stands for this setting: source organism: Salmonella enterica subsp. enterica serovar Typhimurium str. LT2.

Take DLNTSAGFPYV: the IC50 in the experiment with HLA-A*02:01 [1] (source organism: Rhinovirus C) worked out at 0.5 µM.
On to FLPDKAIDL, for which the Kd amounted to 0.047 µM with HLA-C*08:02 (source organism: Listeria monocytogenes EGD-e), 0.02 µM in the experiment with HLA-C*03:03 and 17 µM in the experiment with HLA-A*69:01 (source organism: Bacillus anthracis).
In the case of FVADSTPLY, the Kd is no more than 0.0001 µM with HLA-B*35:01, no less than 20 µM in the experiment with HLA-A*03:01 [2], 0.0018 µM in the experiment with HLA-A*01:01 [3] and no less than 20 µM in the experiment with HLA-C*08:02 (source organism: Yersinia pestis Antiqua).
As to PHPVVVRTL, the Kd in the experiment with HLA-B*15:17, with HLA-A*11:01 [4], with HLA-B*18:01, with HLA-A*31:01 (setting [9]), in the experiment with HLA-A*23:01 and with HLA-A*26:02 was no less than 20 µM each time. Further, the Kd with HLA-B*39:01, with HLA-A*02:01 [5] (setting [9]), with HLA-A*26:01 (source organism: Vibrio vulnificus CMCP6), with HLA-B*58:01 (setting [9]), with HLA-B*57:01 (setting [9]) and in the experiment with HLA-A*03:01 [6] (setting [9]) was no less than 20 µM in each case. The Kd with HLA-A*69:01 (setting [9]) is no less than 20 µM; with HLA-A*01:01 [7] (setting [9]) it was no less than 20 µM; with HLA-A*24:03 (setting [9]) it was no less than 20 µM; with HLA-B*07:02 (setting [9]), no less than 20 µM; with HLA-A*24:02 (setting [9]), 18 µM; with HLA-A*68:02 it was no less than 20 µM. For the same sequence, the figures for the Kd with HLA-B*15:01 (setting [9]) and with HLA-B*27:05 (setting [9]) were 0.775 µM and no less than 20 µM, respectively.
For QYDVPMVSF, the Kd in the experiment with HLA-A*24:03 (source organism: Mycobacterium tuberculosis) was 0.0184 µM; with HLA-C*05:01 (source organism: Mycobacterium tuberculosis H37Rv), no less than 20 µM.
Take RATSHVPEF: the Kd was 0.148 µM with HLA-C*12:03, no less than 20 µM in the experiment with HLA-B*58:01 (setting [10]), no less than 20 µM in the experiment with HLA-B*57:01 (setting [10]) and no less than 20 µM with HLA-C*05:01 (source organism: Toxoplasma gondii ME49).
For RKAGVNQAK, the Kd in the experiment with HLA-A*31:01 (setting [11]), in the experiment with HLA-A*02:01 [5] (setting [11]), with HLA-A*26:01 (setting [11]), with HLA-B*73:01, with HLA-B*58:01 (setting [11]) and with HLA-A*03:01 [6] (setting [12]) was no less than 20 µM each time. The Kd in the experiment with HLA-B*08:01 (setting [11]), in the experiment with HLA-A*69:01 (setting [11]), with HLA-A*01:01 [7] (setting [11]), with HLA-B*40:01 (setting [11]), with HLA-B*07:02 (setting [11]) and with HLA-B*15:01 (setting [11]) was no less than 20 µM each time. Further, the Kd in the experiment with HLA-A*30:01 is 12.9 µM; with HLA-B*27:05 (setting [12]), 0.224 µM; in the experiment with HLA-B*44:02 (setting [11]) it was no less than 20 µM.
Consider RTFSPTYGL, for which the IC50 in the experiment with HLA-A*02:01 [1] (source organism: Homo sapiens) stood at 0.408 µM.
With SLDQSVVEL, in the experiment with HLA-C*05:01 (source organism: Chlamydia trachomatis), the Kd was 0.051 µM.
TVLEYLVSFGV: in the experiment with HLA-A*02:01 [1] (source organism: Hepatitis B virus), the IC50 is 0.294 µM.
As for YSDIFNNVL, the Kd with HLA-A*31:01 (setting [12]), with HLA-A*26:01 (setting [13]), with HLA-B*58:01 (setting [12]), in the experiment with HLA-A*11:01 [8], in the experiment with HLA-A*03:01 [6] (setting [12]) and with HLA-B*08:01 (setting [13]) was no less than 20 µM in each case. Moreover, the dissociation constant (Kd) was 0.075 µM with HLA-A*01:01 [7] (setting [12]); 0.396 µM in the experiment with HLA-B*40:01 (setting [12]); no less than 20 µM with HLA-B*07:02 (setting [12]); no less than 20 µM with HLA-A*24:02 (setting [12]); no less than 20 µM with HLA-B*15:01 (setting [12]); 0.005 µM with HLA-C*05:01 (setting [13]). Moreover, the Kd in the experiment with HLA-B*08:02, in the experiment with HLA-B*27:05 (setting [12]) and with HLA-B*44:02 (setting [12]) was no less than 20 µM throughout.

A word on the IC50: it is the concentration needed to halve the response being measured. As usually defined, the Kd is a measure of binding affinity in units of concentration.

The values are drawn from the Immune Epitope Database (IEDB).
